Conditions: Escherichia coli (strain K12), pH 7.8, Urea, NMR, Potassium phosphate 58 mM, reversible: yes, whole UniProt chain shown

B1: Tryptophan synthase alpha chain wild type, P0A877 (protein)
chain: MERYESLFAQLKERKEGAFVPFVTLGDPGIEQSLKIIDTLIEAGADALELGIPFSDPLADGPTIQNATLRAFAAGVTPAQCFEMLALIRQKHPTIPIGLLMYANLVFNKGIDEFYAQCEKVGVDSVLVADVPVEESAPFRQAALRHNVAPIFICPPNADDDLLRQIASYGRGYTYLLSRAGVTGAENRAALPLNHLVAKLKEYNAAPPLQGFGISAPDQVKAAIDAGAAGAISGSAIVKIIEQHINEPEKMLAALKVFVQPMKAATRS
**Q.** Which results are given for B1?
**A.** denaturant midpoint (higher = more stable) (5 °C): 4.8 M; unfolding free energy (5 °C): 4.8 kcal/mol; denaturant midpoint (higher = more stable) (10 °C): 4.6 M; unfolding free energy (10 °C): 5.5 kcal/mol; denaturant midpoint (higher = more stable) (15 °C): 4.7 M; unfolding free energy (15 °C): 6.1 kcal/mol; denaturant midpoint (higher = more stable) (20 °C): 5.4 M; unfolding free energy (20 °C): 7.5 kcal/mol; denaturant midpoint (higher = more stable) (25 °C): 5.9 M; unfolding free energy (25 °C): 8.2 kcal/mol

— FireProtDB (doi:10.1021/bi951726o)
